Patent US20210147541A1 (Kyowa Kirin, published 2021)
Read-outs that look alike come from different tables or passages of the source.

What was measured:
[1] = target: T1, hCADM3-GST (human); experiment: SPR (Biacore T-100), antibody captured, hCADM3-GST as analyte
T1 construct: also called extracellular domain of human CADM3 to which GST was added at the C-terminal side; human CADM3-GST
Procedure: (§1) The affinity of the anti-CADM3 antibodies produced in Example 2 for human CADM3 and mouse CADM3 was measured using Biacore T-100 (GE Healthcare). Each of the antibodies was immobilized on a […] sensor chip using a Human antibody Capture kit, and the binding ability was evaluated using hCADM3-GST and mCADM3-GST produced in Example 4 as analytes.
(§2) The obtained sensorgram was analyzed with BIA evaluation software, and the dissociation constant (KD value) was calculated.

[2] = target: T2, mCADM3-GST (mouse); experiment: SPR (Biacore T-100), antibody captured, mCADM3-GST as analyte
T2 construct: also called extracellular domain of mouse CADM3 to which GST was added at the C-terminal side; mouse CADM3-GST
Procedure: as §1, §2

[3] = target: T3, human CADM3 (human, UniProt Q8N126 25-398); experiment: flow cytometry, 10 ug/mL, human CADM3/Expi293F vs parent Expi293F cells
T3 construct: Full-length gene expressed transiently on Expi293F cells; also called cell adhesion molecule 3; human CADM3/Expi293F cells
T3 sequence: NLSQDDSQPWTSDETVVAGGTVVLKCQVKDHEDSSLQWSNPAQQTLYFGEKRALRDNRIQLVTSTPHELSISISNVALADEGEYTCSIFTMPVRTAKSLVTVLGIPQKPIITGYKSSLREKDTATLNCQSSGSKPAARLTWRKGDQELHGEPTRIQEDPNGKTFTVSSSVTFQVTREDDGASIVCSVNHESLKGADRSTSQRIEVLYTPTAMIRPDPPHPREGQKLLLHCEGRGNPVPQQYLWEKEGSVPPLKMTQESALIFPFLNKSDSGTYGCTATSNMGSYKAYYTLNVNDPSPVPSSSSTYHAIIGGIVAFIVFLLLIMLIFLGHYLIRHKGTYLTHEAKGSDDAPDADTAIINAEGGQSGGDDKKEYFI
Procedure: By using the cells, the reactivity of the antibodies produced in Example 2 with the CADM3-expressing cells was analyzed by a fluorescence activated cell sorting (FACS) method according to the following procedure.
(§3) After washing with SB, the cells were suspended in SB, and the fluorescence intensity of each cell was measured using a flow cytometer FACS CANTO II (manufactured by Becton, Dickinson and Company). Note that as a negative control, 10 μg/mL of the anti-AVM antibody was used.
(§4) The detection results were analyzed, and a mean fluorescence intensity (MFI) was calculated using a geometric mean. Further, with respect to the MFI when the concentration of each antibody was 10 μg/mL, the ratio of the MFI (mean fluorescence intensity ratio) between the human CADM3/Expi293F cells and the Expi293F cells (parent cell line) was calculated.

[4] = target: T4, mouse CADM3 (mouse, UniProt Q99N28 23-396); experiment: flow cytometry, 10 ug/mL, mouse CADM3/Expi293F vs parent Expi293F cells
T4 construct: Full-length gene expressed transiently on Expi293F cells; also called mouse CADM3/Expi293F cells; Mouse CADM3-expressing cells
T4 sequence: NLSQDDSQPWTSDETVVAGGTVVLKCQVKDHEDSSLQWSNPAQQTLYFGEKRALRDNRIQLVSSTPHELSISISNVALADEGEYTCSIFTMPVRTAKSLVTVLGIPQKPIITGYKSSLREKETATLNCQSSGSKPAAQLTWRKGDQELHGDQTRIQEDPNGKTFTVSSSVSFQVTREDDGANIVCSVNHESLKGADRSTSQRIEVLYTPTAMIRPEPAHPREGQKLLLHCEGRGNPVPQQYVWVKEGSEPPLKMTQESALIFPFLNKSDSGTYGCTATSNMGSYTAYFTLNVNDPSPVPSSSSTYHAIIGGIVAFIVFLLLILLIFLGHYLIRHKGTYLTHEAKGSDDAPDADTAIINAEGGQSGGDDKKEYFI

[5] = target: T3, human CADM3; experiment: flow cytometry, 10 ug/mL, human CADM3/Expi293F vs parent Expi293F cells; remark: listed apart in the source
Procedure: as §3, §4
(§5) With respect to the produced humanized anti-CADM3 VHH-Fc antibodies, reactivity with Expi293F cells, human CADM3/Expi293F cells, and mouse CADM3/Expi293F cells was analyzed by the same procedure as in Example 3.

[6] = target: T4, mouse CADM3; experiment: flow cytometry, 10 ug/mL, mouse CADM3/Expi293F vs parent Expi293F cells; remark: listed apart in the source
Procedure: as §3, §4, §5

[7] = target: T1, hCADM3-GST; experiment: SPR (Biacore T-100), antibody captured, hCADM3-GST as analyte; remark: listed apart in the source
Procedure: as §1
(§6) With respect to the produced humanized anti-CADM3 antibodies, affinity for CADM3 by surface plasmon resonance detection was evaluated by the same procedure as in Example 6.

[8] = target: T2, mCADM3-GST; experiment: SPR (Biacore T-100), antibody captured, mCADM3-GST as analyte; remark: listed apart in the source
Procedure: as §1, §6

[9] = target: T4, mouse CADM3; experiment: flow cytometry, 10 ug/mL, mouse CADM3/Expi293F vs parent Expi293F cells; remark: listed apart in the source
Procedure: as §3, §4
Further, also with respect to AVM IgG4PE(R409K)_iCADM3_3R1-L5 dVHH, AVM IgG4PE(R409K)_iCADM3_3R1-L8 dVHH, AVM IgG4PE(R409K)_iCADM3_3R1-L10 dVHH, and AVM IgG4PE(R409K)_iCADM3_3R1-L11 dVHH, reactivity with the Expi293F cells, the human CADM3/Expi293F cells, and the mouse CADM3/Expi293F cells was analyzed by the same procedure, and the results are shown in Table 5.

B1: CADM3501 hG4PE(R409K) (antibody, V domains shown)
VH: EVQLVESGGGLVQPGGALRLSCSASGFTFSGYWMHWVRQAPGKGLEWVSQISSSGTIIDSADFVKGRFAVSRDNAKDLLYLQMNSLRADDTAVYYCARGPLAKNGFDIWGQGTMVTVSS
VL: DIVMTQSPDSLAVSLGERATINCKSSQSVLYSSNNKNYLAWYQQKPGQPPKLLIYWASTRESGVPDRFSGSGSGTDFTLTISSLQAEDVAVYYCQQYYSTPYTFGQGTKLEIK
notes: Human IgG4 variant (S228P, L235E, R409K), vector pCI-hKG4PE(R409K)
- binding result [1]: binds
- binding result [2]: binds
- Mean fluorescence intensity ratio [3]: 44.9
- Mean fluorescence intensity ratio [4]: 36.1

B2: CADM3432 hG4PE(R409K) (antibody, V domains shown)
VH: QVQLQQSGPGLVKASQTLSLTCAISGDSVSSRSAAWDWIRQSPSRGLEWLGRTYYRSTWYNDYASSVRSRISINPDTSKNQFSLQLNSVTPEDTAVYYCVRANRKLPAPGQHFYYGMDVWGQGTTVTVSS
VL: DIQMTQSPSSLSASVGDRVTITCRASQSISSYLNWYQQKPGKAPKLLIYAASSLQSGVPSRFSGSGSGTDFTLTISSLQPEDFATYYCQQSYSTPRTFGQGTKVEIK
notes: as for B1
- binding result [1]: binds
- binding result [2]: binds
- Mean fluorescence intensity ratio [3]: 14.7
- Mean fluorescence intensity ratio [4]: 14.6

B3: CADM3448 hG4PE(R409K) (antibody, V domains shown)
VH: QVQLQQSGPGLVKPAQTLSLTCAISGDSVSSNSVAWNWVRQSPSRGLEWLGRTYYRSQWYNDYAGSVRSRITISADTSKNQFSLQLNSVTPEDTALYYCVRANRKLPAPGQHFYYGMDVWGQGTTVTVSS
VL: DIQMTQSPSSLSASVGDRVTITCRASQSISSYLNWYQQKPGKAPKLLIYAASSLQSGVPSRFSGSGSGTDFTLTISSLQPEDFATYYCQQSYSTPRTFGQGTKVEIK
notes: as for B1
- binding result [1]: binds
- binding result [2]: binds
- Mean fluorescence intensity ratio [3]: 9.4
- Mean fluorescence intensity ratio [4]: 10.4

B4: iCADM3_3R1-L11_02 VHH-hG4PE(R409K) (Fc fusion)
chain: EVQLVESGGGLIQPGGSLRLSCAASGSTVSFNAMGWYRQAPGKGRVLVAVITSGGYTNYADSVKGRFTISRDNSKNTVYLQMNSLRAEDTAVYYCNAEGVYSDYVIMNYWGQGTLVTVSS
notes: also called iCADM3-3R1-L11_02 humanized antibody; not shown: Hinge-CH2-CH3 region of the human IgG4 heavy chain constant region (IgG4 variant)
- Mean fluorescence intensity ratio [5]: 12.4
- Mean fluorescence intensity ratio [6]: 27.9

B5: iCADM3_3R1-L11_05 VHH-hG4PE(R409K) (Fc fusion)
chain: EVQLVESGGGLIQPGGSLRLSCAASGSIFSFNAMGWYRQAPGKGRVLVAVITSGGYTNYADSVKGRFTISRDNSKNTVYLQMNSLRAEDTAVYYCNAEGVYSDYVIMNYWGQGTLVTVSS
notes: also called iCADM3-3R1-L11_05 humanized antibody; not shown: Hinge-CH2-CH3 region of the human IgG4 heavy chain constant region (IgG4 variant)
- Mean fluorescence intensity ratio [5]: 11.1
- Mean fluorescence intensity ratio [6]: 24.6

B6: iCADM3_3R1-L11_03 VHH-hG4PE(R409K) (Fc fusion)
chain: EVQLVESGGGLIQPGGSLRLSCAASGSTVSFNAMGWYRQAPGKQRGLVSVITSGGYTNYADSVKGRFTISRDNSKNTVYLQMNSLRAEDTAVYYCNAEGVYSDYVIMNYWGQGTLVTVSS
notes: also called iCADM3-3R1-L11_03 humanized antibody; not shown: Hinge-CH2-CH3 region of the human IgG4 heavy chain constant region (IgG4 variant)
- Mean fluorescence intensity ratio [5]: 24.4
- Mean fluorescence intensity ratio [6]: 33.8

B7: iCADM3_3R1-L11_06 VHH-hG4PE(R409K) (Fc fusion)
chain: QVQLVESGGGLVQAGGSLRLSCAASGSIFSFNAMGWYRQAPGKQRGLVAVITSGGYTNYADSVKGRFTISRDNSKNTVFLQMNSLRAEDTAVYYCNAEGVYSDYVIMNYWGQGTLVTVSS
notes: also called iCADM3-3R1-L11_06 humanized antibody; not shown: Hinge-CH2-CH3 region of the human IgG4 heavy chain constant region (IgG4 variant)
- Mean fluorescence intensity ratio [5]: 33
- Mean fluorescence intensity ratio [6]: 42.2

B8: iCADM3_3R1-L11_04 VHH-hG4PE(R409K) (Fc fusion)
chain: EVQLVESGGGLIQAGGSLRLSCAASGSIVSFNAMGWYRQAPGKQRGLVAVITSGGYTNYADSVKGRFTISRDNSKNTLFLQMNSLRAEDTAVYYCNAEGVYSDYVIMNYWGQGTLVTVSS
notes: also called iCADM3-3R1-L11_04 humanized antibody; not shown: Hinge-CH2-CH3 region of the human IgG4 heavy chain constant region (IgG4 variant)
- Mean fluorescence intensity ratio [5]: 22.5
- Mean fluorescence intensity ratio [6]: 26.7

B9: iCADM3_3R1-L11_01 VHH-hG4PE(R409K) (Fc fusion)
chain: EVQLVESGGGLIQPGGSLRLSCAASGSTVSFNAMGWYRQAPGKGLGLVAVITSGGYTNYADSVKGRFTISRDNSKNTLFLQMNSLRAEDTAVYYCNAEGVYSDYVIMNYWGQGTLVTVSS
notes: also called iCADM3-3R1-L11_01 humanized antibody; not shown: Hinge-CH2-CH3 region of the human IgG4 heavy chain constant region (IgG4 variant)
- Mean fluorescence intensity ratio [5]: 12.2
- Mean fluorescence intensity ratio [6]: 12.5

B10: iCADM3_3R1-L8 VHH-hG4PE(R409K) (Fc fusion)
chain: QVQLVESGGGLVQPGGSLRLSCAASGRTFSNYARGWFRQAPGKEREFVAAIDYSGGSTNYADSAKGRFTISRDNAKNTVYLQMNSLKPGDTAVYYCAAPASRRPSWDADGYDYWGQGTQVTVSS
notes: VHH-Fc antibody; also called anti-CADM3 VHH-Fc antibody iCADM3_3R1-L8; not shown: Hinge-CH2-CH3 region of the human IgG4 heavy chain constant region (IgG4 variant)
- Kd [7]: 12.5 nM
- koff [7]: 0.00051 s⁻¹
- kon [7]: 41000 M⁻¹ s⁻¹
- Kd [8]: 4.39 nM
- koff [8]: 0.00063 s⁻¹
- kon [8]: 140000 M⁻¹ s⁻¹
- Mean fluorescence intensity ratio [3]: 5.84
- Mean fluorescence intensity ratio [4]: 8.2

B11: AVM IgG4PE(R409K)_iCADM3_3R1-L5 dVHH (bispecific antibody)
heavy: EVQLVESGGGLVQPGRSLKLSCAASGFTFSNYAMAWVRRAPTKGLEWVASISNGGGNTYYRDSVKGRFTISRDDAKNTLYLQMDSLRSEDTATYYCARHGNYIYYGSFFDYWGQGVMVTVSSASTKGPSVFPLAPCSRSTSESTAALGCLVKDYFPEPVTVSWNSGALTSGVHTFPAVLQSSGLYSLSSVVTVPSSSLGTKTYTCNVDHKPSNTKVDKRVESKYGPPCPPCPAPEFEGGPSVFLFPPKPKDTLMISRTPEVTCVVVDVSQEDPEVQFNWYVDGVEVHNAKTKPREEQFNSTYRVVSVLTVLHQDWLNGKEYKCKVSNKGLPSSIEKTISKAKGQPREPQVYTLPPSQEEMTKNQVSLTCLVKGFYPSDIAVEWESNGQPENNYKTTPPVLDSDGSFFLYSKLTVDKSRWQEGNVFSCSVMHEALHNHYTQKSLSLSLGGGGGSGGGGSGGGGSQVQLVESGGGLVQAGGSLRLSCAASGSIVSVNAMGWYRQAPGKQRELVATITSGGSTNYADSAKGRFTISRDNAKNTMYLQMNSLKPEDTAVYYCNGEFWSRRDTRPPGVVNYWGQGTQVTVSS
light: QFVLSQPNSVSTNLGSTVKLSCKRSTGNIGSNYVSWYQQHEGRSPTTMIYRDDKRPDGVPDRFSGSIDRSSDSALLTINNVQTEDEADYFCQSYSSGINIFGGGTKLTVLGQPKAAPSVTLFPPSSEELQANKATLVCLISDFYPGAVTVAWKADSSPVKAGVETTTPSKQSNNKYAASSYLSLTPEQWKSHRSYSCQVTHEGSTVEKTVAPTECS
notes: also called anti-AVM-IgG4-CADM3 VHH bispecific antibody
- Mean fluorescence intensity ratio [9]: 1.96

B12: AVM IgG4PE(R409K)_iCADM3_3R1-L8 dVHH (bispecific antibody)
heavy: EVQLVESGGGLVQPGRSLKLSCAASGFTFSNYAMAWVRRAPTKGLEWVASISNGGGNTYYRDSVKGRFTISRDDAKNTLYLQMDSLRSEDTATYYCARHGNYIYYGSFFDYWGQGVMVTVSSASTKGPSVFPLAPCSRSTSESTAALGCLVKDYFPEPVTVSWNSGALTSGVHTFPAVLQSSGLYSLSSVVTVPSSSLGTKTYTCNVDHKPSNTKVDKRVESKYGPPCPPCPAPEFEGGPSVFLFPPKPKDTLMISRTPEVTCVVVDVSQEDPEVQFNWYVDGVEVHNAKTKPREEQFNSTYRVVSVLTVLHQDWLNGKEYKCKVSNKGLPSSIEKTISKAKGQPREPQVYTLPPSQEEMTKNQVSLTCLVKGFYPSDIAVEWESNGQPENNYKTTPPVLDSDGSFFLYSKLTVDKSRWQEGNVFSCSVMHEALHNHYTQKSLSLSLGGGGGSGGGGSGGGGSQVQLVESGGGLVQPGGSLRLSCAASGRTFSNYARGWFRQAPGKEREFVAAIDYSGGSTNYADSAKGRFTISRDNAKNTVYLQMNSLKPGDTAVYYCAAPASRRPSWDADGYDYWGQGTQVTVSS
light: QFVLSQPNSVSTNLGSTVKLSCKRSTGNIGSNYVSWYQQHEGRSPTTMIYRDDKRPDGVPDRFSGSIDRSSDSALLTINNVQTEDEADYFCQSYSSGINIFGGGTKLTVLGQPKAAPSVTLFPPSSEELQANKATLVCLISDFYPGAVTVAWKADSSPVKAGVETTTPSKQSNNKYAASSYLSLTPEQWKSHRSYSCQVTHEGSTVEKTVAPTECS
notes: as for B11
- Mean fluorescence intensity ratio [9]: 3.65

B13: AVM IgG4PE(R409K)_iCADM3_3R1-L10 dVHH (bispecific antibody)
heavy: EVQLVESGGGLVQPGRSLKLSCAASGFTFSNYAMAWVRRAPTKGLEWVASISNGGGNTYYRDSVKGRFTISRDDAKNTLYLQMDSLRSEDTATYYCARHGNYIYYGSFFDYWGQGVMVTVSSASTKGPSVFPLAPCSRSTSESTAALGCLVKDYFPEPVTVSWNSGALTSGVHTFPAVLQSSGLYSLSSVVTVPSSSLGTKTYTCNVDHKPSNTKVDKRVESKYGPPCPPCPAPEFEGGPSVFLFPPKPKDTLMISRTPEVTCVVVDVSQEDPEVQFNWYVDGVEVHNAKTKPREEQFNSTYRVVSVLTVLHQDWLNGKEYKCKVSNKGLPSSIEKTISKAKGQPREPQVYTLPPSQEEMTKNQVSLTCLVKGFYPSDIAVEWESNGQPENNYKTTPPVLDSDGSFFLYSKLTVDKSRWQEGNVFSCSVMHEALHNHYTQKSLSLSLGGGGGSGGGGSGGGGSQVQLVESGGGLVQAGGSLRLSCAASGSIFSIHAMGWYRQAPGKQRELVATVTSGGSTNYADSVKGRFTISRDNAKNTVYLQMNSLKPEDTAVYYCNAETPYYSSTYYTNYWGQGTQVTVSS
light: QFVLSQPNSVSTNLGSTVKLSCKRSTGNIGSNYVSWYQQHEGRSPTTMIYRDDKRPDGVPDRFSGSIDRSSDSALLTINNVQTEDEADYFCQSYSSGINIFGGGTKLTVLGQPKAAPSVTLFPPSSEELQANKATLVCLISDFYPGAVTVAWKADSSPVKAGVETTTPSKQSNNKYAASSYLSLTPEQWKSHRSYSCQVTHEGSTVEKTVAPTECS
notes: as for B11
- Mean fluorescence intensity ratio [9]: 1.78

B14: AVM IgG4PE(R409K)_iCADM3_3R1-L11 dVHH (bispecific antibody)
heavy: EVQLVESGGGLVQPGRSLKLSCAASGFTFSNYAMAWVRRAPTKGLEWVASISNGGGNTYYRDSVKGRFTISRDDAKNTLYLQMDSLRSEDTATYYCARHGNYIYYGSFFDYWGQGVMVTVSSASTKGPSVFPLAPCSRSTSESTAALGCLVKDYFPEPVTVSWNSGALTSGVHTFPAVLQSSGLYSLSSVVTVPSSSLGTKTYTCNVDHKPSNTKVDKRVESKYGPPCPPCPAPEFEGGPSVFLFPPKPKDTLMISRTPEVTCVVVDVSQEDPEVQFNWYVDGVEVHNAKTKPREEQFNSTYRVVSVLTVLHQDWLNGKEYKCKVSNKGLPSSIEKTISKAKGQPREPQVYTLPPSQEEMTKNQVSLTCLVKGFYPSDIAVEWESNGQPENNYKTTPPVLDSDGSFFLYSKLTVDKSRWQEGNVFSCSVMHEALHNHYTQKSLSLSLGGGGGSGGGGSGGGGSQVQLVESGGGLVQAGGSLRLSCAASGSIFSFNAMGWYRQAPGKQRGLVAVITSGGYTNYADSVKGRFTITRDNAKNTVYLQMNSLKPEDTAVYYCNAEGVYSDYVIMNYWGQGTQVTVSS
light: QFVLSQPNSVSTNLGSTVKLSCKRSTGNIGSNYVSWYQQHEGRSPTTMIYRDDKRPDGVPDRFSGSIDRSSDSALLTINNVQTEDEADYFCQSYSSGINIFGGGTKLTVLGQPKAAPSVTLFPPSSEELQANKATLVCLISDFYPGAVTVAWKADSSPVKAGVETTTPSKQSNNKYAASSYLSLTPEQWKSHRSYSCQVTHEGSTVEKTVAPTECS
notes: as for B11
- Mean fluorescence intensity ratio [9]: 4.66
